Target: VEGF165 (vascular endothelial growth factor, 165 aa form) (Homo sapiens, UniProt P15692-4 P15692-4:27-191)
Assay: filter
Settings: tags: gift of N. Ferrara, Genentech; chain copies: 2 stated
Description: Nitrocellulose Filter Binding Assays. Oligonucleotides bound to proteins can be effectively separated from the unbound species by filtration through nitrocellulose membrane filters (Yarus, M. and Berg, P. (1970) Anal. Biochem. 35:450-465; Lowary, P. T. and Uhlenbeck, O. C. (1987) Nucleic Acids Res. 15:10483-10493; Tuerk, C. and Gold, L. (1990) supra). Nitrocellulose filters (0.2 μm pore size, Schleicher and Schuell, Keene, N.H.) were secured on a filter manifold and washed with 4-10 ml of buffer; Following incubations of ³²P labeled RNA with serial dilutions of the protein for 10 min at 37° C. in buffer (PBS) containing 0.01% human serum albumin (HSA), the solutions were applied to the filters under gentle vacuum in […] aliquots and washed with 5 ml of PBS. The filters were then dried under an infrared lamp and counted in a scintillation counter.
To this end, certain ligands were synthesized and tested for binding affinity. The binding studies were performed using the protocols described in Example 1.

Chain of VEGF165 (vascular endothelial growth factor, 165 aa form) (P15692 other isoform, or with tags, fused parts or gaps): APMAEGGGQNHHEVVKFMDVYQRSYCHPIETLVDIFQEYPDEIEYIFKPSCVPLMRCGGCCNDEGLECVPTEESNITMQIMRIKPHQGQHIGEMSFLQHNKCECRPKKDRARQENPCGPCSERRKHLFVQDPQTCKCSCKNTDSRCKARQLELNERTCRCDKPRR

ACCCUGAUGGUAGACGCCGGGGUG (ssRNA, 2'-NH2 at all C and U; G9,A12,A14 2:1 mixture 2'-OMe:2'-OH) [NX-203]
Kd: 0.2 nM

— patent US20030032785, “High-affinity oligonucleotide ligands to vascular endothelial growth factor (VEGF)” (published 2003)
